The target of assay [1] is T1, ACE (Homo sapiens, UniProt P12821). Set-up: method as in 6 sources, ref 38 = [38]; PMID 31264418; doi:10.1021/acs.jafc.9b01922; 38. Shih Y.H. Chen F.A. Wang L.F. Hsu J.L. Discovery and study of novel antihypertensive peptides derived from cassia obtusifolia seeds J. Agric. Food Chem. 2019 67 7810 7820 10.1021/acs.jafc.9b01922 ||| ref 39 = [39]; PMID 26948626; doi:10.1016/j.foodchem.2016.02.097; 39. Gangopadhyay N. Wynne K. O’Connor P. Gallagher E. Brunton N.P. Rai D.K. Hayes M. In silico and in vitro analyses of the angiotensin-I converting enzyme inhibitory activity of hydrolysates generate ||| ref 40 = [40]; PMID 26344130; doi:10.1016/j.jprot.2015.08.018; 40. Priyanto A.D. Doerksen R.J. Chang C.-I. Sung W.-C. Widjanarko S.B. Kusnadi J. Lin Y.-C. Wang T.-C. Hsu J.-L. Screening, discovery, and characterization of angiotensin-I converting enzyme inhibitor ||| ref 41 = [41]; PMID 29112398; doi:10.1021/acs.jafc.7b04522; 41. Orio L.P. Boschin G. Recca T. Morelli C.F. Ragona L. Francescato P. Arnoldi A. Speranza G. New ACE-inhibitory peptides from hemp seed ( Cannabis sativa L.) proteins J. Agric. Food Chem. 2017 65 10 ||| ref 42 = [42]; PMID 21381782; doi:10.1021/jf104998s; 42. Yang R. Zou Y. Yu N. Gu Z. Accumulation and identification of angiotensin-converting enzyme inhibitory peptides from wheat germ J. Agric. Food Chem. 2011 59 3598 3605 10.1021/jf104998s 21381782 ||| ... The conditions noted are these: cited from earlier work.
T1 sequence (P12821 30-1306, species assumed): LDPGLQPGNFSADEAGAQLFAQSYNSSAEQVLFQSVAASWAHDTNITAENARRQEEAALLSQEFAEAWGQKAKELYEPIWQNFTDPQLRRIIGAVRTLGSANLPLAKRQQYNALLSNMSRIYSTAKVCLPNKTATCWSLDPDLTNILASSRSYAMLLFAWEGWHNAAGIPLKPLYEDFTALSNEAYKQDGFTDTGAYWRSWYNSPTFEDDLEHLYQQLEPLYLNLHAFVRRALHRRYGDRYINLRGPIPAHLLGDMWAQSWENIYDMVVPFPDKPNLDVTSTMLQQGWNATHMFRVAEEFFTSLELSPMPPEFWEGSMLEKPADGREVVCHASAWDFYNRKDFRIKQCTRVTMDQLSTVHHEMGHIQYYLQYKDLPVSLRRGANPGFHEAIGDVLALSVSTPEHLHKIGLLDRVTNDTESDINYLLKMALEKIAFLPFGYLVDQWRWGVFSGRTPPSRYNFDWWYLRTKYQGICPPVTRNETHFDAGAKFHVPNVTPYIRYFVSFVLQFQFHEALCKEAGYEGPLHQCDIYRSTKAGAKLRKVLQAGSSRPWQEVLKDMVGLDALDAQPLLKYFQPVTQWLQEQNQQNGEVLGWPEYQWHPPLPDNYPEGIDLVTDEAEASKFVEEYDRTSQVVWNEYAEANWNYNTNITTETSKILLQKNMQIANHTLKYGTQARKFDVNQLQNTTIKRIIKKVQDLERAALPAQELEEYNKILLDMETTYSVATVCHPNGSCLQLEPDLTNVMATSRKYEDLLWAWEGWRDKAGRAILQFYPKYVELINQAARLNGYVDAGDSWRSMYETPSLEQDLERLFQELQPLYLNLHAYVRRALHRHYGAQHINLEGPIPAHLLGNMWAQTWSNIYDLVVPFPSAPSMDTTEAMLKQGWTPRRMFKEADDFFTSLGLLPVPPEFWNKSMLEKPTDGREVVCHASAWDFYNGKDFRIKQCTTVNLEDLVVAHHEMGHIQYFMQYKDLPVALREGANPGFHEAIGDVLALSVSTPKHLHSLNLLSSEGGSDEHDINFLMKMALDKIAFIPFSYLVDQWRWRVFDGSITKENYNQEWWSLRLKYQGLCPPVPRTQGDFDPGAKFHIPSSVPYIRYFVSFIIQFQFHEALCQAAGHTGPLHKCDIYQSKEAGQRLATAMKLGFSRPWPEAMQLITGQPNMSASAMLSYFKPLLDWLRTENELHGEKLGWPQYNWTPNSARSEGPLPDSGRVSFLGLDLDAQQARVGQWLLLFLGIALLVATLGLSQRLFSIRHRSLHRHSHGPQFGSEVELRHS

Assay [2] has as its target angiotensin I-converting enzyme (ACE) (Homo sapiens, UniProt P12821). Briefly: In vitro ACE inhibitory assay (HHL substrate, RP-HPLC detection). The class given is biochemical. The settings on record: synthetic peptides, purity >95%; HHL substrate 2.5 mM (30 µL), ACE 0.05 mU/µL (20 µL), pre-incubation 37 °C 5 min, incubation 37 °C 30 min; HPLC-UV 228 nm; non-linear regression, nine concentrations, repeated three times; read-out: IC50 of synthetic peptides against ACE. How it is done:
The method to determine the ACE inhibitory activity of gac seeds peptides hydrolysate was adapted according to a previous report with slight modification. Briefly, the sample dissolved in ddH2O (10 µL) was added to 2.5 mM hippuryl-L-histidyl-L-leucine (30 µL). Borate buffer (10 µL) was used as blank solution. In total, 50 µM Captopril (10 µL) was used as positive control. The samples, blank, and positive control were incubated at 37 °C for 5 min. Then, 0.05 mU/µL of ACE (20 µL) was added into each solution. The reaction mixture was incubated at 37 °C for 30 min and mixed in a shaker incubator at 200 rpm for 30 min. The reaction was stopped by adding 1 N HCl (60 µL). After, 0.25 mg/mL ferulic acid (10 µL) was added as an internal standard. Samples were centrifuged (Hitachi Koki Co., Ltd., Tokyo, Japan) at 15,000 rpm for 2 min. The samples were separated by RP-HPLC using a C18 column (4.6 mm × 250 mm, particle size 5 µm) (Macherey-Nagel, Duren, Germany). Samples were selected using an isocratic gradient of 95% solvent A and […] solvent B at a flow rate of 1 mL/min. Solvent A was prepared by 5% acetonitrile + 0.1% trifluoroacetic acid and solvent B was prepared by 95% acetonitrile + 0.1% trifluoroacetic acid. Absorbance was measured using a UV detector at 228 nm. ACE inhibitory activity (%) was examined in triplicate and calculated according to the following equation:ACE-inhibitory activity (%) = [1 − (ΔAinhibition)/(ΔAcontrol)] × 100%, where ΔAinhibition and ΔAcontrol are the peak areas in the sample with or without inhibitor.
The definition of IC50 is the peptide concentration required to inhibit 50% of angiotensin-converting enzyme. The IC50 was calculated using non-linear regression of the ACE inhibitory activity (%) from nine different concentrations. This assay was repeated three times for each experiment.

Assay [3] deals with T1, ACE. Description: Kinetics of ACE inhibition (Lineweaver-Burk plot). The class given is biochemical. The settings on record: with increasing ALVY concentration. The method, then: Kinetics of ACE inhibition was determined by a previous method with some modifications. The hydrolysis rate of HHL by ACE over a range of HHL concentrations of 0.005, 0.1, 0.5, 1, and 2 mM was measured while varying the concentrations of ALVY. The modes of ACE inhibition were determined from Lineweaver-Burk plots while inhibition parameters (Vmax and Km) were calculated, respectively, as the Y- and X-axis intercepts of the primary plot.

The target in assay [4] is Angiotensin I-converting enzyme (UniProt P12821).
Chain of Angiotensin I-converting enzyme (P12821 30-1306): as the sequence (P12821 30-1306, species assumed) above

Read-outs that look alike come from different tables or passages of the source. Residues, ends and D or L forms follow the SMILES beside them. No end group written: not given here.

Chain of angiotensin I-converting enzyme (ACE) (P12821 30-1306, species assumed): as above

Regarding “FHAPWK [peptide from Cassia obtusifolia seeds]”, the IC50 with ACE [1] (Cassia obtusifolia seeds, read-out: IC50 (Cassia obtusifolia seeds peptide)) was 16.8 µM. For the molecule LSTSTDVR-OH [LSTSTDVR], in assay [2], the IC50 is greater than 167 µM.

“VSGAGRY [peptide from bitter melon seeds]”: in the assay with ACE [1] (bitter melon seeds, read-out: IC50 (bitter melon seeds peptide)), the IC50 was 8.6 µM.

For the molecule `CC(C)C[C@H](NC(=O)[C@H](C)N)C(=O)N[C@H](C(=O)N[C@@H](Cc1ccc(O)cc1)C(=O)O)C(C)C` [ALVY] (H-ALVY-OH), in assay [2], the IC50 turned out to be 7.03 ± 0.09 µM. In addition, the “Effect on Km” value on ACE [3] is “increased with the increasing peptide concentration”. Take LLAPHY [LLAPHY]: in assay [2], the IC50 was found to be 15.9 ± 0.52 µM. `CC(C)C[C@H](NC(=O)[C@@H](N)CC(C)C)C(=O)N[C@H](C(=O)N[C@@H](Cc1ccc(O)cc1)C(=O)O)C(C)C` [LLVY] (H-LLVY-OH): in assay [2], the IC50 came out at 87.8 ± 3.37 µM. On to LSTSTDVR, for which, in assay [4], the IC50 of ACE inhibitory activity (hydrolysis of hippuryl-L-histidyl-L-leucine by ACE, 37 °C, RP-HPLC read-out at 228 nm; synthetic peptide, nine concentrations) is greater than 167 µM.

For the molecule LLAPHY, in assay [4], the IC50 of ACE inhibitory activity (hydrolysis of hippuryl-L-histidyl-L-leucine by ACE, 37 °C, RP-HPLC read-out at 228 nm; synthetic peptide, nine concentrations) is 15.9 µM.

Regarding LLVY, the IC50 of ACE inhibitory activity (hydrolysis of hippuryl-L-histidyl-L-leucine by ACE, 37 °C, RP-HPLC read-out at 228 nm; synthetic peptide, nine concentrations) in assay [4] was found to be 87.8 µM. Same read-out and setting: in the case of ALVY it was 7.03 µM.

Source of the values: PMC7587174, “ACE Inhibitory Activity and Molecular Docking of Gac Seed Protein Hydrolysate Purified by HILIC and RP-HPLC” (Molecules, 2020).
